Measurements reported in PMC10872345.

Tests used:
[1] = biological target: Biotinylated human E-cadherin K14E mutant ectodomains (human); test: single-molecule AFM force spectroscopy
[2] = biological target: Biotinylated human E-cadherin ectodomains (EC1-5), wild type (human); test: single-molecule AFM force spectroscopy

| average unbinding force [1] [pN] | unbinding force, lower peak (un-strengthened, with 40 nM 66E8 Fab) [1] [pN] | unbinding force, second peak (strengthened, with 40 nM 66E8 Fab) [1] [pN] | peak unbinding force [2] [pN] | unbinding force, lower peak (un-strengthened, with 40 nM 66E8) [2] [pN] | unbinding force, second peak (strengthened, with 40 nM 66E8) [2] [pN] | Substance |
| --- | --- | --- | --- | --- | --- | --- |
| 42.8 | 39.4 | 62.3 | – | – | – | Biotinylated human E-cadherin K14E mutant ectodomains (domain or fragment) |
| – | – | – | 48.3 | 45.2 | 63.3 | Biotinylated human E-cadherin ectodomains (EC1-5), wild type (domain or fragment) |
